# From patent publication US20170299608A1 (NGM BIOPHARMACEUTICALS, published 2017)
# T1: rat GFRAL, expressed on HEK293T cells (rat, UniProt D3ZB94 20-394)
# T1 sequence: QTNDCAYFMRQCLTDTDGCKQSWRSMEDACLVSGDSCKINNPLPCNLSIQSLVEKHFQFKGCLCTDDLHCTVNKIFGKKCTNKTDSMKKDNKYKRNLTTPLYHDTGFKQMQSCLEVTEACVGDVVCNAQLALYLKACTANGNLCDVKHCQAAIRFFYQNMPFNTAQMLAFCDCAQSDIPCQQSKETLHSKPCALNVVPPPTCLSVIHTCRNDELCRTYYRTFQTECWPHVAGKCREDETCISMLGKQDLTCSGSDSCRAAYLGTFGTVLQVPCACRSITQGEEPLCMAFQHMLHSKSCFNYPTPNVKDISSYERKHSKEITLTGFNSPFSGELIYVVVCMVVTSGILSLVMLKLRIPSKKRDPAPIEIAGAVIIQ
# T2: mouse GFRAL, expressed on HEK293T cells (mouse, UniProt Q6SJE0 20-393)
# T2 sequence: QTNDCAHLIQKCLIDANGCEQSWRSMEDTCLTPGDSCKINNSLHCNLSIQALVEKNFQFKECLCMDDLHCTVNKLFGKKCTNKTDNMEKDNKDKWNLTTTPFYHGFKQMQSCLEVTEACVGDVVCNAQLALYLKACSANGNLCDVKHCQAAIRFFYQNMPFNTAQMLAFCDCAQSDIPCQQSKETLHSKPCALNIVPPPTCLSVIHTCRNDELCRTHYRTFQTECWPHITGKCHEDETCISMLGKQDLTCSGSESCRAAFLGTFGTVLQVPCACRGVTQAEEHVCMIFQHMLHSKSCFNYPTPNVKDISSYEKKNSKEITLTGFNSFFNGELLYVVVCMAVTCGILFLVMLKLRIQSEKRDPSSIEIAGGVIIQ
# T3: human GFRAL, full length, expressed on HEK293 / HEK293T cells (human, UniProt Q6UXV0 20-394)
# T3 sequence: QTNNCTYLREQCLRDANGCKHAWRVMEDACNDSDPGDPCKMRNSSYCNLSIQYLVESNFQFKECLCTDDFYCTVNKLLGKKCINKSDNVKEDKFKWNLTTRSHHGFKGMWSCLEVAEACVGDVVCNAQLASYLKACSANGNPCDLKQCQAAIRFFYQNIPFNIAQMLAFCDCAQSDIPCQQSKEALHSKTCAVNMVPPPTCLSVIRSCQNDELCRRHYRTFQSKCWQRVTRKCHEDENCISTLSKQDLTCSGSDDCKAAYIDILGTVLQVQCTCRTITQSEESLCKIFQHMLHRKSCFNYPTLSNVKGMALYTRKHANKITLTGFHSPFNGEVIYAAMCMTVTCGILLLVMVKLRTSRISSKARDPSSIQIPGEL
# T4: cynomolgus monkey GFRAL, expressed on HEK293T cells (cynomolgus monkey, UniProt Q6UXV0 19-394 (human entry))
# T4 chain: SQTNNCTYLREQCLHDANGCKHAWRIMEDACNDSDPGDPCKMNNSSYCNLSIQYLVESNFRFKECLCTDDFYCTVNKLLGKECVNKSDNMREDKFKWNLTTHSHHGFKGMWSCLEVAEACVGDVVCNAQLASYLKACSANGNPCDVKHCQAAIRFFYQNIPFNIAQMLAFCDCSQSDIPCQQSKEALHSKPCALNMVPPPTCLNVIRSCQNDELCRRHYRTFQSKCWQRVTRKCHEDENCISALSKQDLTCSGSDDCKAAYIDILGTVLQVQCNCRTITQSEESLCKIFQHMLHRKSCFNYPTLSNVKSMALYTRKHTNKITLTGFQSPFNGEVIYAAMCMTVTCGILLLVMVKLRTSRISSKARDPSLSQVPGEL
# Legend:
# [1] = target: T1, rat GFRAL, expressed on HEK293T cells; assay: cell-based or functional assay
# [2] = target: T2, mouse GFRAL, expressed on HEK293T cells; assay: cell-based or functional assay
# [3] = target: T3, human GFRAL, full length, expressed on …; assay: cell-based or functional assay
# [4] = target: T4, cynomolgus monkey GFRAL, expressed on …; assay: cell-based or functional assay
# [5] = target: T3, human GFRAL, full length, expressed on …; assay: radio-ligand competition: unlabeled GDF15 displacing 0.15 nM ^125I-GDF15 from HEK293-GFRAL cells
# Experimental: HEK293-GFRAL cells were suspended in ice-cold binding buffer (Dulbecco's modified Eagle's medium containing 2 mg/ml BSA, and 25 mM HEPES, pH 7.4) and transferred to pre-wetted Multiscreen filter plates (96-well Dura PVDF 0.65 um Opaque; Millipore), which were kept on ice. Typically, 1×10⁵ of cells in 25 μl were used per well. […] Plates were then transferred to a vacuum filtration manifold (Pall Corporation) and supernatants were filtered. Each well was washed four times with 100 μl of ice cold binding buffer. Bound ¹²⁵I-GDF15 (CPM) were measured by scintillation counting (150 μl/well of EcoLite, MP Biomedicals, Santa Anna, Calif.) using MicroBeta2 Plate Counter (Perkin Elmer). The concentrations (in nM) of unlabeled inhibitors used in this experiment are as follows. GDF15 and GFRAL-Fc: 100, 25, 6.25, 1.56, 0.39, 0.098, 0.024, 0.006; 1M03: 1000, 250, 62.5, 15.63, 3.91, 0.98, 0.24, 0.06.
# [6] = target: T3, human GFRAL, full length, expressed on …; assay: radioligand saturation binding to HEK293 cells expressing human GFRAL, equilibrium, 2 hr at 4 °C
# Experimental: HEK293 or HEK293-human GFRAL cells were suspended in ice-cold binding buffer (Dulbecco's modified Eagle's medium containing 2 mg/ml BSA, and 25 mM HEPES, pH 7.4) and transferred to pre-wetted Multiscreen filter plates (96-well Dura PVDF 0.65 um Opaque; Millipore), which were kept on ice. Typically, 1×10⁵ of cells in 25 μl were used per well. Cells were incubated with 25 μl of binding buffer containing serial dilution of ¹²⁵I-GDF15 (2 fold serial dilution from 1000 pM to 0.1 pM final reaction concentration) with or without unlabeled GDF15 (500 nM final reaction concentration) for 2 hr at 4° C. Plates were then transferred to a vacuum filtration manifold (Pall Corporation) and supernatants were filtered. Each well was washed four times with 100 μl of ice cold binding buffer. Bound ¹²⁵I-GDF15 were measured by scintillation counting (150 μl/well of EcoLite, MP Biomedicals, Santa Anna, Calif.) using MicroBeta2 Plate Counter (Perkin Elmer). Bound (molecule/cell) was calculated according to a standard curve correlating CPM and molarity of ¹²⁵I-GDF15.
# To determine the binding affinity of GDF15 to GFRAL, radio-labeled ¹²⁵I-GDF15 was used to bind HEK293 cells expressing human GFRAL (FIG. 2A) under equilibrium conditions. […] Excess amount of unlabeled GDF15 (500 nM) reduced the ¹²⁵I-GDF15-GFRAL binding to ‘non-specific’ background level. […]
Binder,EC50 of Elk/GAL4-luciferase reporter in HEK293T cells co-transfected with rat GFRAL and RET9 [1],EC50 of Elk/GAL4-luciferase reporter in HEK293T cells co-transfected with mouse GFRAL and RET9 [2],EC50 of Elk/GAL4-luciferase reporter in HEK293T cells co-transfected with human GFRAL and human RET9 [3],EC50 of Elk/GAL4-luciferase reporter in HEK293T cells co-transfected with cynomolgus monkey GFRAL and RET9 [4],IC50 [5],Kd [6]
"mature human GDF15 (112 amino acids) (ligand, also called hGDF15; unlabeled GDF15) ARNGDHCPLGPGRCCRLHTVRASLEDLGWADWVLSPREVQVTMCIGACPSQFRAANMHAQIKTSLHRLKPDTVPAPCCVPASYNPMVLIQKTDTGVSLQTYDDLLAKDCHCI",6.2 pM,1.5 pM,2.1 pM,5.2 pM,400 pM,–
"^125I-GDF15 (radio-iodinated mature human GDF15) (ligand, 125I label, site not stated, Labelled form of m1; also called radio-labeled GDF15) ARNGDHCPLGPGRCCRLHTVRASLEDLGWADWVLSPREVQVTMCIGACPSQFRAANMHAQIKTSLHRLKPDTVPAPCCVPASYNPMVLIQKTDTGVSLQTYDDLLAKDCHCI",–,–,–,–,–,~200 pM
